Data from patent US20020077289A1, “Angiostatin and endostatin binding proteins and methods of use” (priority 2000, published 2002).

Columns and labels:
[1] = target: T1, rhTM3 (human tropomyosin isoform 3) (Homo sapiens, UniProt P09493); experiment: Surface plasmon resonance (BIAcore) binding to immobilized rhTM3; conditions: steady state model; soluble rhEndostatin over immobilized rhTM3 (3200 RU); 25° C; read-out: dissociation constant (KD) for the rhEndostatin/rhTM3 interaction
T1 construct: made in house; host or cells: E. coli BL21 (DE3), pET-21a(+)
T1 sequence (P09493 1-284 isoform P09493-3): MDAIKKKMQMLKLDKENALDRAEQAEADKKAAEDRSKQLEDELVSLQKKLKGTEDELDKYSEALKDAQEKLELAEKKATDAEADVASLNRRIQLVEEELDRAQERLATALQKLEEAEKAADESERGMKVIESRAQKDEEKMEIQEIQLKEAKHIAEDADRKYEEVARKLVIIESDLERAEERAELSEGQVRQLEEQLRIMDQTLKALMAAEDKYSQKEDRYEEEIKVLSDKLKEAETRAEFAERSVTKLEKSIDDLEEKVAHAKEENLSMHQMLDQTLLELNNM
Experimental: (A), 0, 10, 20, 40, 80 and 160 micromolar (μM) of rhEndostatin were injected at 5 microliters per minute (μl/minute) for 960 seconds through a biosensor flow cell that had been activated and blocked as a control for bulk refractive index and subsequently through a flow cell to which 3200 response units (RU) of rhTM3 had been immobilized. The binding kinetics were recorded and the differences between the two curves plotted for each rhEndostatin concentration. (B), 0, 11.5, 23 and 46 micromolar (μM) of rhAngiostatin were injected at 5 microliters per minute (μl/minute) for 900 seconds over a flow cell containing 3200 RU of rhTM3 as above. Samples were run in duplicate, the data corrected for bulk shift and the average of the 2 curves plotted. (C), Injection of 5 micromolar (μM) of rhEndostatin at 5 microliters per minute (μl/minute) for 240 seconds in the presence of 0, 6, 15, 30 and 45 micromolar (μM) of soluble rhTM3 over a flow cell containing 2000 RU of rhTM3. Samples were run in duplicate, the reference cell values subtracted and the average of each of the 2 curves plotted. The spikes in RU seen at the beginning and end of each injection are due to lag in flow caused by the rhTM3 and reference cells being non-adjacent.
Interactions between purified soluble rhEndostatin and rhTM3 were evaluated by surface plasmon resonance using the BIAcore 3000 (BiaCore, Piscataway, N.J.). The purified rhTM3 was immobilized on the flow cell of a CM-5 BIAcore biosensor chip. The running buffer was 0.01 M HEPES, pH 7.4, 0.15M NaCl and 0.005% polysorbate 20 (v/v). The competition experiments involving soluble rhTM3 were performed using PBS pH 7.4 as running buffer. All measurements were performed at 25° C. To correct for differences in bulk refraction all protein preparations were passed over an activated and blocked flow cell to which no protein had been coupled. Effects due to bulk shift were subtracted from experimental data.
Surface plasmon resonance performed using the BIAcore 3000 (BiaCore, Piscataway, N.J.) was used to assess the kinetics of rhEndostatin/rhTM3 binding. […]

HUVEC microfilaments = experiment: Fluorescent staining of formalin fixed endothelial cells with Alexa 488-labeled rhEndostatin; type: cell-based, human; conditions: 40 μg/ml Alexa 488-labeled rhEndostatin with anti-tropomyosin TM311; HUVECs
Experimental: (A), HUVECs, (B), HAECs and (C), HMVECs were incubated in the presence of 40 micrograms per milliliter (μg/ml) Alexa 488-labeled rhEndostatin and photographed at 100× magnification under Alexa 488 (green) excitation wavelength. (D) and (E), HUVECs were incubated simultaneously in anti-tropomyosin TM311 ascites fluid and 40 micrograms per milliliter (μg/ml) Alexa 488-labeled rhEndostatin followed by incubation in Alexa 594 conjugated goat anti-mouse IgG (H+L). The same field was photographed under Alexa 488 (green) and Alexa 594 (red) excitation wavelengths at 100× magnification.
HUVECs were incubated in the presence of 40 micrograms per milliliter (μg/ml) Alexa 488-labeled rhEndostatin alone (A), or in the presence of a 50-fold molar excess of control peptide (B), or E37 peptide (C). Cells were photographed using the same exposure times at 100x magnification under Alexa 488 (green) excitation wavelength.
To detect the binding of Alexa-labeled rhEndostatin 1×10^4 HUVEC, HMVEC and HAECs were plated on 1.5% gelatin coated Nalge Nunc Lab Tek II chamber slides (Naperville, Ill.) and fixed in 10% neutral buffered formalin followed by a methanol wash. The chamber slides were incubated in PBS/1% calf serum containing 40 μg/ml (2 μM) of Alexa 488-labeled rhEndostatin (Narum et al., manuscript in preparation) for 1 hr at room temperature. The slides were washed in PBS, coverslips mounted using fluorescent mounting media (Kirkegaard and Perry Laboratories, Gaithersburg, Md.) and cells photographed under Alexa 488 excitation wavelength. Co-localization studies were performed as above except cells were incubated in PBS/1% calf serum containing 1:200 mouse anti-tropomyosin TM311 (Sigma, St. Louis, Miss.) and 40 μg/ml of Alexa 488-labeled rhEndostatin followed by incubation with goat anti-mouse IgG (H+L) conjugated to Alexa 594 (Molecular Probes, Eugene, Oregon). The same fields were photographed under Alexa 488 and Alexa 594 wavelengths. […]

fibroblasts = experiment: Proliferation of PDGF-BB or 20% fetal calf serum stimulated fibroblasts (thymidine incorporation, MTT); type: cell-based; conditions: stimulated with PDGF-BB or 20% fetal calf serum; compared with pericytes
Source text: Endostatin protein results in an inhibition of proliferation of PDGF-BB or 20% fetal calf serum stimulated primary cultures of pericytes and to a lesser extent fibroblasts. […] The results have been confirmed using a MTT proliferation kit.

B16-BL6 melanoma cells = experiment: B16-BL6 experimental metastasis assay; type: in vivo, C57BL/6J mice; conditions: dose of 1.3 nmol rhEndostatin
wound healing = conditions: in vivo; cited from earlier work

B1: rhEndostatin: recombinant human Endostatin, antiangiogenic fragment of a C-terminal non-collagenous region of a collagen protein, produced in P. pastoris (protein)
chain: HSHRDFQPVLHLVALNSPLSGGMRGIRGADFQCFQQARAVGLAGTFRAFLSSRLQDLYSIVRRADRAAVPIVNLKDELLFPSWEALFSGSEGPLKPGARIFSFDGKDVLRHPTWPQKSVWHGSDPNGRRLTESYCETWRTEAPSATGQASSLLGGRLLGQSAASCHHAYIVLCIENSFMTASK
[1]
  Kd: ~100 µM
HUVEC microfilaments
  localization of fluorescently labeled rhEndostatin in fixed cells: co-localized to HUVEC microfilaments
fibroblasts
  thymidine incorporation into fibroblasts: to a lesser degree
B16-BL6 melanoma cells
  inhibition of lung metastases inferred from dose titration of rhEndostatin (Sim et al): 77%
Wound healing
  effect on wound healing: remained unaffected
